Assay results as given in patent US20230226096A1 (Orna Therapeutics, Inc., priority 2020, published 2023).

B1: Bovine picornavirus (nucleic acid)
DNA: TTTTCTCCCCTCCCCCTCCAACTACCTTTTCCCCCTCTTGTAACGCTAGAAGTTTGTGCAAACCGCCTGTAGGGTACTGCAATCCAGCAGTGCATAGGCTAAGCTTTTCTTGTTACCCCACCCCACATTATACTGAGGAGGATTGTGAAATTGTGTTAGTATGGGTTAGTAGCGGTGACCCGGGTAACCCCAACCCAGAAACTCACGGATGAGATGAACAGGACCCCACATGGTAACGTGTGTGTTCGTCTGCCCCGCAAGGTGAGGCCGTGAGAGCTTTGCACGCGAAAACCTTGAAAACCCAAAAGTACCTTGAGCTCTTCGCTATTTTGTGTTTCCTCCAGGACCCTGAATGCGGCTAAACCTAACCCGCGATCCGCACGTAGCAACCCAGCTAGAGTGTGGTCGTAATGCGCAAGTTGCGGGCGGTACCGACTACTTTGGTGTTCCTGTGTTTCCTTTATTTTATTTTGAATTTTTATGGTGACAACAGCTAGAAAATAAGAGTGAAC
B2: Human enterovirus 109 (nucleic acid, listed as Enterovirus sp.)
DNA: TTTAAAACAGCCTGGGGGTTGTTCCCACCCCCAGGGCCCACTGGGCGTTAGTACTCTGGTATCGCGGTACCTTAGTATGCCTGTTTTATGTCTCCTTTCCCCCGCAACTTTAGAAGTAATCAAGTTATGGCTCAACAGTCGCCACACCCCCAGTGTGGTTCCGAGCAAGCACTTCTGTTCCCCGGTTGCGTCTTATATGCTGTGTGAACGGCAGAAAGGGACAATATCGTTATCCGCTCAACTACTACGGGAAGCCTAGTACCACCATGGATTGACCTGAAAGTTGCGTTCAGCGCACCCCCAGCGCAGCTCAGGCCGATGAGGCTCCGAATACCCCACGGGCGACCGTGTCGGAGCCTGCGTTGGCGGCCTGCCCACGTTGCAAAACGTGGGACGCTCATTTCATGACATGGTGCGAAGAGCCTACTGTGCTAGTTGAGAGTCCTCCGGCCCCTGAATGTGGATAATCCTAACCACTGAACCTACGGGCGCAAACCAGCGTCTGGTAGGCCGTAACGCGCAAGTCGGTGGCGGAACCAACTACTTTGGGTGTCCGTGTTTCCTTTTATCTTTTTGAATGTTTATGGTGACAATTGTTGTGTACAGTTGTTACCATAGTTTGCATTCAGAAATAAACCTAACACTTTCCAATTATTTGTTACA
B3: Aichivirus DV (nucleic acid, listed as Aichivirus sp.)
DNA: TACTCCATTCAGCTTCTTCGGAACCTGTTCGGAGGAATTAAACGGGCACCCATACACCCCCACCCCCTTTTCTGCAACTTAAGTATGTGTGCTCGTAATCTTGACTCCCACGGAACGGATCGATCCGCTGGAGAACAAACTGCTAGATCCACATCCTCCCTTCCCCTGGGAGGACCCCGGTCCTCCCACATCCTCCCCCCAGCCTGACGTAACACAGGCTGTGTGAAGTCCCCGCGAAAGCTGCTCACGTGGCAATTGTGGGTCCCCCCTTCACCAAGACACCAGGTCTTTCCTCCTTAAGGCTAGCCCCGATGTGTGAATTCACATTGGGCAACTAGTGGTGTCACTGTGCGCTCCCAATCTCGGCCGCGGAGTGCTGTTCCCCAAGCCAAACCCCTGGCCCTTCACTATGTGCCTGGCAAGCATATCTGAGAAGGTGTTCCGCTGTGGCTGCCAGCCTGGTAACAGGTGCCCCAGTGTGCGTAACCTTCTTCCGTCTCCGGACGGTAGTGATTGGTTAAGATTTGGTGTAAGGTTCATGTGCCAACGCCCTGTGCGGGATGAAACCTCTACTGCCCTAGGAATGCCAGGCAGGTACCCCACCTTCGGGTGGGATCTGAGCCTGGGCTAATTGTCTACGGGTAGTTTCATTTCCAATTCTTTTATGTCGGAGTC
B4: Rabbit Kobuvirus (nucleic acid, listed as Kobuvirus sp.)
DNA: GGGCTATAAATATGGGCATTCCTCTTCCCCCTTCCCCTTTTGAAGATGAGTGCGCATATTCTTGACTCCGCCTGGATTGGCCGCCCAAGGCGTGAACAAGCAGCTAGGCCACCATGACACTGCGGTGGTGTCCGAACCCGCGGGTGCCTTCACGGGCACCTGTGGTATGTAGGACTCCCACCGTGGTCTTCCCTTTCCCCCTCAATCTTTCCCCCTGGTTCGACTAACGGGACCAGTGCTGGAACCTGTCCGGTGAACGGTATAGCAGGCCCCCCCGGCAGAAACACCCGGTGCTTACCCCTTAAGGCTAGCCCCCTTCCATGAATTTGGTTGGGGCAACTAGTGGGTGTACAGTTGGCGTGAACCCTCCGGTCTAGGAGTGCTCTTGCCCAATCCTCTGTGTGTGCCTTGCAGTAGGGACTGGCAATCCTTCGCGTAGGTGATCCGCTGTGCCATGCCATCCTGGCGACAGGAGGCCCAGTGTGCGCAACCTACGTCCCTTCTGGGTGCTGCATTGCATTACCTTTGGAGTAAGCTTGGTGTGCCGAAACCCCAGGGTTTACGTACCACTCGTGGTGTGAGGAATGTGCCGCAGGTACCCCATCCTTGAGGTGGGATCTGAGCGGTAGCTAATTGTCTAGCACCACTTTCTTCCTTTTTTCTTTGCTGGTCACG
B5: Murine Kobuvirus 1 (nucleic acid, listed as Kobuvirus sp.)
DNA: GTAACTTCAAGTGTGTGTGCTCGTAATCTTGACTCCTGCCGGAATGCCGCCCGGTTCAGTGAACAAACAGCTAGGCAAGTCCCTCCCTTCCCCTGTGGTCGGTTCTCACCGGCCACCATCCCTCCCCCAGCCTGACGTGTTACAGGCTGTGCAAAGCCCCCGCGAAAGCTGCTCACGTGGCAATTGTGGGTCCCCCCTTTGTCAAGACACCGAGTCTTTCTCCCTTAAGGCTAGCCCGGTCCCACGAACGTGGAACTGGCAACTAGTGGTGTCACTACACGCCTCCGACCTCGGACGCGGAGTGCTGTTCCCCAAGCTGTAACCCTGACCCAAGACTGTGCTGCCTGGCAAGCACCGTCTGGGAAGATGTTCCGCTGTGGCTGCCAAACCTGGTAACAGGTGCCCCAGTGTGTGTAGTCTTCCTCCAGTCTCCGGACTGGCAGTCTTGTGTAAAGATGCAGTGTAAGGTTCAAGTGCCAAATCCCTGGAAGGAGTGACCCTCTACTGCCCTAGGAATGCTGTGCAGGTACCCCCAACTTCGGTTGGGGATCTGAGCACAGGCTAATTGTCTACGGGTAGTTTCATTTCCCATCCTCTCTTTTTTGGCATC
B6: Porcine Kobuvirus XX (nucleic acid, listed as Kobuvirus sp.)
DNA: CCACCGTTACTTCACTCCACTCCCTCGGGACTGGTTTGGAGGAGCATAACAGGGCTTCCCATCCCTGTTCACCCTCAATACCACCCACCCTTTCCCTCAACCATCCCTATCCACACCCCACTGACTGATTCCCTTGGATTTTGACCTCAGAACGCCTACTTGACCTCCCACTTGCCTTTCCCTTCTCGGATTGCCGGTGGTGCCTGGCGGAAAAAGCACAAGTGTGTTGCAGGCTACCAAACTCCTACCCGACAAAGGTACGTGTCCGCGTGCTGAGTAATGGGATAGGAGATGCCTACAACAGGCTCGCCCATGAGTAGAGCATGGACTGCGGTGCATGTGACTTCGGTCACCACGGGCATAGCATTGCTCACCCGTGAATCAAGTCATTGAGATTCCTCTGACCTCTGAAGTGCACTGTGGTTGCGTGGCTGGGAATCCACGCTTGACCATGTACTGCTTGATAGAGTCGCGGCTGGCCGACTCATGGGTTAAAGTCAGTTGATAAGACAC
B7: Caprine Kobuvirus 12Q108 (nucleic acid, listed as Kobuvirus sp.)
DNA: GGGGGTGGGGGGGGCCTCGGCCCCCTCACCCTCTTTTCCGGTGGCCACGCCCGGGCCACCGATACTTCCCTTCACTCCTTCGGGACTGTTGGGGAGGAACACAACAGGGCTCCCCTGTTTTCCCATTCCTTCCCCCTTTTCCCAACCCCAACCGCCGTATCTGGTGGCGGCAAGACACACGGGTCTTTCCCTCTAAAGCACAATTGTGTGTGTGTCCCAGGTCCTCCTGCGTACGGTGCGGGAGTGCTCCCACCCAACTGTTGTAAGCCTGTCCAACGCGTCGTCCTGGCAAGACTATGACGTCGCATGTTCCGCTGCGGATGCCGACCGGGTAACCGGTTCCCCAGTGTGTGTAGTGCGATCTTCCAGGTCCTCCTGGTTGGCGTTGTCCAGAAACTGCTTCAGGTAAGTGGGGTGTGCCCAATCCCTACAAAGGTTGATTCTTTCACCACCTTAGGAATGCTCCGGAGGTACCCCAGCAACAGCTGGGATCTGACCGGAGGCTAATTGTCTACGGGTGGTGTTTCCTTTTTCTTTTCACACAACTCTACTGCTGACAACTCACTGACTATCCACTTGCTCTCTTGTGCCTTTCTGCTCTGGTTCAAGTTCCTTGATTGTTTTTGACTGCTTTTCACTGCTTTTCTTCTCACAATCCTTGCTCAGTTCAAAGTC
B8: Grusopivirus A (nucleic acid)
DNA: TGCCTGAGTAGGATTGTGAATTTAGGTATGAGAGGGTTAGCCAACCCATTCTGAACCATAATAGATACGTCAATCTGAATCCATCTAAATCTATCTCTTAGGCAGTGGTGCTGAAATATTGCAAGCTACTAGGGATAGACGTGATCTGATTCAAGAACCTATCTAATGTGGTGATGAGAAGGCTAGGTTTATCCATAGTAATCCCTTGTTCTGAACAGGCAATGCACATGCTCTAGTAGGATCTCGGGCTCTGCGATTGGCTCTAAACCGACCAATCCAGGTAGAGGCACTAAGTGTAGGACTTGCCAAAATGTATTACATGCTGGTACCGACTCACTAGTCTGGAAACTCCACACTGAAAGTGACTGGGGGGGGCCCCATCACATTTGTGCTACTGCTTGATAGAGTTGCGGCTGGTCAACTTGGATTGGTATAACCAGTTGAA
modifications: Grusopivirus A
B9: Aalivirus (nucleic acid, listed as Aalivirus sp.)
DNA: TTGAAAGGGGGTGCTCAGGGTAGCTCCCTGAGCTCTTCCCTCCACCCTCTTTCAACGTCTGGCCCACGATACGGGCCACCTTTCAATCTTAACTAACTATCCCTTTAATCTATTTGGATTTTCTGGTTTAGAATAATTTGGAACACATAATTGGATTATCTTTTAGGATTGTGGATAGGATTTGTTCGGGATATCACTCCCTTCCTGTGCTAACACATATTCTAATTCCCTCCTTTGTCTATTATCTCTTGGAGGTGGTGCTGAAATATTGCAAGCCACTTGAGTGTATAGATGAAGTAGGCTCAAGATGAATGTTGTGTTACTCAAGGCAAGTGTAGCTATCACTAAGATATTGGTAACGTGAAACGGATTACCGGTAGTAGCGTGATCTTCCGTCTTAGTGCTCTAGTGACTAGAGGACAACGACATGGCATCACATATCTTAACCCTCCAGTTTTGGCATCCGGGACAGAATGGGCTGGATATCCGCTTTCTTTCTGGGGTATGTGATGGGTGGTATTGGGGTAACCACCTTGACCATGACGCTCGATAAGAGTGACCGCCTGATCATTGAAACCTCTAGTATAAAATTCAGGCTGAAATC

What follows are molecules tested on HEK293 cells. Details: luminescence from secreted Gluc in supernatant 24 hours after transfection of HEK293 cells; circular RNA encoding Gluc with the named IRES (UTR truncated to 675 nt).
Type: cell-based, human

| Molecule | Expression |
| --- | --- |
| B1 | 3.82E+06 |
| B2 | 4.92E+05 |
| B3 | 7.79E+07 |
| B4 | 3.73E+07 |
| B5 | 1.60E+07 |
| B6 | 1.32E+07 |
| B7 | 2.87E+08 |
| B8 | 1.09E+05 |
| B9 | 2.65E+05 |
